The results in this text go back to article PMC13226650, “Non-decameric NLRP3 reveals a TGN/MTOC-distal pathway of inflammasome activation” (Nature Communications, 2026).

Series [1] concerns the molecule itself. Nature of the series: SEC-MALS; peak 2 fractions (C7-D4) pooled, 1.3 mg/mL; Superose 6 Increase 10/300 GL in lysis buffer (50 mM HEPES pH 7.5, 150 mM NaCl, 0.5 mM TCEP, 10 mM MgCl2, 1 mM ADP); 0.5 mL/min.
Series [2] deals with the molecule itself. Nature of the series: SEC + other: negative-stain EM; Superose 6 Increase 10/300 GL in 50 mM HEPES pH 7.5, 150 mM NaCl, 0.5 mM TCEP, 10 mM MgCl2, 1 mM ADP; elution against a gel filtration standard; SEC fractions of peak 2 imaged after 2 % uranyl acetate stain. Background: SEC sorts molecules by how far they enter the pores of the column.

B1: MBP-NLRP3(Δexon3) (natural protein, human, UniProt Q96P20 3-1036, looked up)
chain: MASTRCKLARYLEDLEDVDLKKFKMHLEDYPPQKGCIPLPRGQTEKADHVDLATLMIDFNGEEKAWAMAVWIFAAINRRDLYEKAKRDEPKWDYRKKYRKYVRSRFQCIEDRNARLGESVSLNKRYTRLRLIKEHRSQQEREQELLAIGKTKTCESPVSPIKMELLFDPDDEHSEPVHTVVFQGAAGIGKTILARKMMLDWASGTLYQDRFDYLFYIHCREVSLVTQRSLGDLIMSCCPDPNPPIHKIVRKPSRILFLMDGFDELQGAFDEHIGPLCTDWQKAERGDILLSSLIRKKLLPEASLLITTRPVALEKLQHLLDHPRHVEILGFSEAKRKEYFFKYFSDEAQARAAFSLIQENEVLFTMCFIPLVCWIVCTGLKQQMESGKSLAQTSKTTTAVYVFFLSSLLQPRGGSQEHGLCAHLWGLCSLAADGIWNQKILFEESDLRNHGLQKADVSAFLRMNLFQKEVDCEKFYSFIHMTFQEFFAAMYYLLEEEKEGRTNVPGSRLKLPSRDVTVLLENYGKFEKGYLIFVVRFLFGLVNQERTSYLEKKLSCKISQQIRLELLKWIEVKAKAKKLQIQPSQLELFYCLYEMQEEDFVQRAMDYFPKIEINLSTRMDHMVSSFCIENCHRVESLSLGFLHNMPKEEEEEEKEGRHLDMVQCVLPSSSHAACSHGLVNSHLTSSFCRGLFSVLSTSQSLTELDLSDNSLGDPGMRVLCETLQHPGCNIRRLWLGRCGLSHECCFDISLVLSSNQKLVELDLSDNALGDFGIRLLCVGLKHLLCNLKKLWLVSCCLTSACCQDLASVLSTSHSLTRLYVGENALGDSGVAILCEKAKNPQCNLQKLGLVNSGLTSVCCSALSSVLSTNQNLTHLYLRGNTLGDKGIKLLCEGLLHPDCKLQVLELDNCNLTSHCCWDLSTLLTSSQSLRKLSLGNNDLGDLGVMMFCEVLKQQSCLLQNLGLSEMYFNYETKSALETLQEEKPELTVVFEPSW
notes: NLRP3, human, UniProt Q96P20, residues 3-1036 with the linker region encoded by exon 3 (residues 95-134) deleted; a TEV site stands between MBP and NLRP3; Calculated mass of the MBP-NLRP3(Δexon3) monomer is printed as 154.8 kDa; also called MBP-NLRP3 (∆95-134); source: baculovirus-infected Sf9 insect cells, purified (MBP-trap, SEC on Superose 6 Increase); not shown: MBP, N-terminal, kept
By stoichiometry N is commonly meant the number of molecules, sites or subunits per partner or assembly. With B1, the “stoichiometry N” value in series [1] turned out to be 2.

B2: MBP-NLRP3(Δexon3) + GSGAGG linker (natural protein, human)
chain: MASTRCKLARYLEDLEDVDLKKFKMHLEDYPPQKGCIPLPRGQTEKADHVDLATLMIDFNGEEKAWAMAVWIFAAINRRDLYEKAKRDEPKWGSGAGGDYRKKYRKYVRSRFQCIEDRNARLGESVSLNKRYTRLRLIKEHRSQQEREQELLAIGKTKTCESPVSPIKMELLFDPDDEHSEPVHTVVFQGAAGIGKTILARKMMLDWASGTLYQDRFDYLFYIHCREVSLVTQRSLGDLIMSCCPDPNPPIHKIVRKPSRILFLMDGFDELQGAFDEHIGPLCTDWQKAERGDILLSSLIRKKLLPEASLLITTRPVALEKLQHLLDHPRHVEILGFSEAKRKEYFFKYFSDEAQARAAFSLIQENEVLFTMCFIPLVCWIVCTGLKQQMESGKSLAQTSKTTTAVYVFFLSSLLQPRGGSQEHGLCAHLWGLCSLAADGIWNQKILFEESDLRNHGLQKADVSAFLRMNLFQKEVDCEKFYSFIHMTFQEFFAAMYYLLEEEKEGRTNVPGSRLKLPSRDVTVLLENYGKFEKGYLIFVVRFLFGLVNQERTSYLEKKLSCKISQQIRLELLKWIEVKAKAKKLQIQPSQLELFYCLYEMQEEDFVQRAMDYFPKIEINLSTRMDHMVSSFCIENCHRVESLSLGFLHNMPKEEEEEEKEGRHLDMVQCVLPSSSHAACSHGLVNSHLTSSFCRGLFSVLSTSQSLTELDLSDNSLGDPGMRVLCETLQHPGCNIRRLWLGRCGLSHECCFDISLVLSSNQKLVELDLSDNALGDFGIRLLCVGLKHLLCNLKKLWLVSCCLTSACCQDLASVLSTSHSLTRLYVGENALGDSGVAILCEKAKNPQCNLQKLGLVNSGLTSVCCSALSSVLSTNQNLTHLYLRGNTLGDKGIKLLCEGLLHPDCKLQVLELDNCNLTSHCCWDLSTLLTSSQSLRKLSLGNNDLGDLGVMMFCEVLKQQSCLLQNLGLSEMYFNYETKSALETLQEEKPELTVVFEPSW
notes: NLRP3, human, UniProt Q96P20, residues 3-94 (before the deleted exon 3 linker 95-134); short flexible linker that replaces residues 95-134; NLRP3, human, UniProt Q96P20, residues 135-1036 (after the deleted exon 3 linker 95-134); also called ∆95-134 + linker (GSGAGG); source: baculovirus-infected Sf9 insect cells, purified (MBP-trap, SEC on Superose 6 Increase); not shown: MBP, N-terminal, kept
With B2, in series [2], the binding result was “binds”.
